Measurements: IntAct's records for PubMed 24705590

B1: Microcin J25 (Escherichia coli), Q9X2V7 (parent)
chain: MIKHFHFNKLSSGKKNNVPSPAKGVIQIKKSASQLTKGGAGHVPEYFVGIGTPISFYG

Variants of: B1
Settings: with fhua_ecoli fhuA
For MIKHFHFNKLSSGKKNNVPSPAKGVIQIKKSASQLTKGGAGKVPEYFVGIGTPISFYG, the “effect of a mutation on the interaction” value was “decreasing interaction strength”.
